Data: patent US20220153839A1 (NBE THERAPEUTICS, published 2022)
Positions count from the first letter of the chain named.

B1: ERR1-TOP4 chimeric rabbit/human Fab (Fab, V domains shown)
VH: QSVEESGGRLVTPGTPLTLTCTASGIDLSRYAVNWVRQAPGKGLEWIGVISGSGTTYYASWAKGRFTISKTSTTVDLKITSPTTEDTATYFCARGWATDGIFDYDDTFNLWGPGTLVTVSS
VL: SYELTQLPSVSVSLGQTARITCGGDSIESKAVHWYQQKPGLAPGLLVYNDDERPSGVPDRFSGSNSGDTATLTISGAQAGDEADYYCQLWDGSAYVFGGGTQLTVTG
notes: Chimeric rabbit/human Fab with His tag, expressed in E. coli (pET11a); lambda light chain
B2: ERR1-301 chimeric rabbit/human Fab (Fab, V domains shown)
VH: QEQLEESGGGLVTPGGSLTLTCTASGFTISTYHMSWVRQAPGKGLEWIGSIYAGSGSTYYASWVNGRFTISSNTTQNTVSLQMNSLTVADTATYFCARDHPSYGMDLWGPGTLVTVSS
VL: SYELTQLPSVSVSLGQTARITCGGNSIGSKAVNWYQQKPGLAPGLLIYDDDERPSGVPDRFSASNSGDTATLTISGAQAEDEADYYCQLWDSSAVAYVFGGGTQLTVTG
notes: as for B1
B3: ERR1-316 chimeric rabbit/human Fab (Fab, V domains shown)
VH: QEQLEESGGRLVTPGTPLTLTCTASGFFLSSYYVSWVRQAPGKGLEWIGAIGTGGSAYYASWAKSRSTITRNTNLSTVTLKMTSLTAADTATYFCARDHPNYGMDLWGPGTLVTVSS
VL: B2 VL with A63G, E80G, A94T, V95G, V98A
notes: as for B1
B4: ERR1-403 chimeric rabbit/human Fab (Fab, V domains shown)
VH: QEQLKESGRGLVQPGGSLKLSCKASGFDFSGWYMTWVRQAPGKGLEWIGTIGTTKGRTYYASWVNGRFTISSNAQNTVDLQMNSLTAADRATYFCVRGSDYFDLWGPGTLVTISS
VL: B2 VL with D59A, A63G, E80G, V95G
notes: as for B1
B5: ERR1-409 chimeric rabbit/human Fab (Fab, V domains shown)
VH: QEQLVESGGRLVTPGGSLTLTCTASGFSLSSYYMGWVRQAPGKGLEWIGTIYGGSGSTWYASWVKGRFTISKTSTAVDLKITSLTTEDTATYFCARSYPGWTTEPYFDIWGPGTLVTVSS
VL: QFVLTQPQSVSGSLGQTVSISCNRDSGNIEDYYVHWYQQHPGKAPTTVIYNDDQRPSGVPDRFSGSIDSTSNSASLTITGLLAEDEADYYCLSSDSSAYVFGGGTQLTVTG
notes: as for B1

target: T1, hROR2 (human, UniProt Q01974); experiment: flow cytometry on 63-12 / hROR2 cells; anti-His Alexa Fluor 488
T1 construct: full length, on the cell surface; also called 63-12 / hROR2; ROR2 on T47D cells
Procedure: Flow cytometry: Cells were stained using standard flow cytometry methodology. Briefly, for purified anti-ROR1 Fab (FIG. 3), 0.1-1×10⁶ cells were stained with 1000 ng/100 μL of Fab on ice for 1 h. After washing twice with ice-cold flow cytometry buffer (PBS containing 1% (v/v) BSA, 0.1% sodium azide and 1 mM EDTA), the cells were incubated with a 1:1000 dilution of a mouse anti-His tag mAb conjugated to Alexa Fluor 488 (Qiagen) in 100 μL flow cytometry buffer on ice for 30 min. For purified anti-ROR1 IgG1 (FIG. 8), 0.1-1×10⁶ cells were blocked by 4% goat serum for 15 min at room temperature and then incubated with 100 ng/100 μL of IgG on ice for 1 h. After washing twice with ice-cold flow cytometry buffer, cells were stained with a 1:500 dilution of goat anti-human IgG, Fcγ pAbs conjugated to APC (Jackson ImmunoResearch) in 100 μL flow cytometry buffer on ice for 30 min. For commercial goat anti human ROR1 polyclonal antibody (FIG. 8), 0.1-1×10⁶ cells were stained with 200 ng/100 μL of Ab on ice for 1 h. […] Finally, 4′,6-diamidino-2-phenylindole (DAPI) was added to a final concentration of 100 ng/mL to exclude dead cells from the analysis. Cells were analyzed using a FACSCalibur instrument (BD Biosciences) and FlowJo analytical software (Tree Star, Ashland, Oreg.).

T1 sequence (Q01974 34-943 limits assumed): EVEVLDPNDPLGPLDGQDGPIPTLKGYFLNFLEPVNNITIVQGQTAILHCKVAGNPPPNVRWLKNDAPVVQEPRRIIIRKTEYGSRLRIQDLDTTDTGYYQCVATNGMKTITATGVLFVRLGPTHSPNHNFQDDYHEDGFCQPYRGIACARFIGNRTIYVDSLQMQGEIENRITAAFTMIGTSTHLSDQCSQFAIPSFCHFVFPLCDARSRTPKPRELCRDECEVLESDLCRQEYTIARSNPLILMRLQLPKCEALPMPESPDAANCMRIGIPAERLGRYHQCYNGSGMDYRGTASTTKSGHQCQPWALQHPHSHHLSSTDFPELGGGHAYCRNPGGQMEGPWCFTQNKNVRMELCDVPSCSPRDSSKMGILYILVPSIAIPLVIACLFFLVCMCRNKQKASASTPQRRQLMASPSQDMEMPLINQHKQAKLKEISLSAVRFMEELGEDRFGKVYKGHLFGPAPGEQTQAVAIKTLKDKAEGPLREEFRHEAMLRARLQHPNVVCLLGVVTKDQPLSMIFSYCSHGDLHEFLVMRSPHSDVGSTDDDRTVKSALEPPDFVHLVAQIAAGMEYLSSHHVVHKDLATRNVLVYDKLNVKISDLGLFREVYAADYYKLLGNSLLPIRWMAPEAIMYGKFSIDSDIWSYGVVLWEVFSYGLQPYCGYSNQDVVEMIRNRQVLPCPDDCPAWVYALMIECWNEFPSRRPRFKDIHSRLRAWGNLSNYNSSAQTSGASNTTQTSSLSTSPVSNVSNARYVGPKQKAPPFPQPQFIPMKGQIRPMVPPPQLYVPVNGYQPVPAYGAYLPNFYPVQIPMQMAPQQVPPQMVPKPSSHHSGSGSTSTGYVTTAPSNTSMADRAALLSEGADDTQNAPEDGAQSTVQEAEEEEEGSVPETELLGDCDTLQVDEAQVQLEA

Binder | binding result
B1 | no binding (tested: 1000 ng/100 µL)
B2 | no binding (tested: 1000 ng/100 µL)
B3 | no binding (tested: 1000 ng/100 µL)
B4 | no binding (tested: 1000 ng/100 µL)
B5 | no binding (tested: 1000 ng/100 µL)

target: T2, hFc-mROR1 (extracellular domain of mouse ROR1 fused to the Fc domain of human IgG1) (human; mouse, UniProt Q9Z139 30-406); experiment: ELISA; hFc fusion captured by coated anti-human IgG1 Fc; anti-His-HRP; A405
T2 construct: extracellular domain; not shown: Fc domain of human IgG1
Procedure: (§1) The binding of each chimeric rabbit/human Fab to hROR1 and mROR1 fused with human IgG1 Fc (hFc-hROR1 and hFc-mROR1) was analyzed by ELISA. hFc-ROR1 or hFc-mROR1 were captured by anti-human IgG1 Fc antibody immobilized on plate and then incubated with hROR1 specific Fabs comprising a His-tag via detection with mouse anti-His tag.
(§2) ELISA: For ELISA (FIG. 2), each well of a 96-well Costar 3690 plate (Corning, Corning, N.Y.) was coated with 100 ng anti-human IgG1 Fc in 25 μL coating buffer (0.1 M Na₂CO₃, 0.1 M NaHCO₃, pH 9.6) for 1 h at 37° C. After blocking with 150 μL 3% (w/v) BSA/TBS for 1 h at 37° C., hFc-hROR1 or hFc-mROR1 was captured following incubation at 100 ng/50 μL for 1 h at 37° C. Then 100 ng/50 μL of Fab was applied in each well at 37° C. 2 h later, 50 μL of a 1:1000 dilution of a mouse anti-His tag mAb conjugated to horse radish peroxidase (HRP) (R&D Systems, Minneapolis, Minn.) in 1% (w/v) BSA/TBS was used to detect the Fab. To determine the epitopes (FIG. 4), hFc fusion proteins containing different domains of hROR1 were coated directly, followed by incubation with Fab before detection by mouse anti-His tag mAb conjugated to HRP. Washing with PBS was repeated and colorimetric detection was performed using 2,2′-azino-bis(3-ethylbenzthiazoline)-6-sulfonic acid (Roche) as substrate according to the manufacturer's directions. The absorbance was measured at 405 nm using a SpectraMax M5 microplate reader (Molecular Devices; Sunnyvale, Calif.) and SoftMax Pro software (Molecular Devices).

T2 sequence (Q9Z139 30-406): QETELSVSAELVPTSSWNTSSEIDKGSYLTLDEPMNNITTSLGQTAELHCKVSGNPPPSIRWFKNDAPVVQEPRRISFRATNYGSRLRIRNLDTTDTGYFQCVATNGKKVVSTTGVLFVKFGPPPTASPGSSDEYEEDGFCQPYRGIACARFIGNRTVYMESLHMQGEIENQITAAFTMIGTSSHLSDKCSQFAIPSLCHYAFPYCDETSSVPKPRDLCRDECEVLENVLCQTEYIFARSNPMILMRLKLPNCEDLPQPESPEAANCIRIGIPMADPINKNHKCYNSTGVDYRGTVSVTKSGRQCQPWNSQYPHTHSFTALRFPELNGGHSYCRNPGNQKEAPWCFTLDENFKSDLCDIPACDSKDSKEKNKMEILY

Binder | binding result
B1 | no binding (tested: 100 ng/50 µL)
B2 | no binding (tested: 100 ng/50 µL)
B3 | no binding (tested: 100 ng/50 µL)
B4 | no binding (tested: 100 ng/50 µL)
B5 | no binding (tested: 100 ng/50 µL)

target: T3, Ig (human, UniProt Q01973); experiment: ELISA on directly coated hFc fusion proteins of hROR1 domains; anti-His-HRP; A405
T3 construct: Ig domain of the extracellular domain; also called hFc-hROR1-Ig
Procedure: as §2

T3 sequence (Q01973 42-147 limits assumed): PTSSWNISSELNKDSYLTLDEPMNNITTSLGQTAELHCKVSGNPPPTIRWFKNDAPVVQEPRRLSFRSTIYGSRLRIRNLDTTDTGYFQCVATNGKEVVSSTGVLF

Binder | binding result
B1 | no binding
B2 | no binding
B3 | no binding
B4 | no binding
B5 | no binding

target: T4, Fr; experiment: as above
T4 construct: also called hFc-hROR1-Fr
Procedure: as §2

T4 sequence (chain, as listed by the source limits assumed): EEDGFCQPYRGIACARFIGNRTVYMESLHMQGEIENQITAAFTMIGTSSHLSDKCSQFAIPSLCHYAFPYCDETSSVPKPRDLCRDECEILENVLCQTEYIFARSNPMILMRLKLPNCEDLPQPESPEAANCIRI

Binder | binding result
B1 | no binding
B2 | no binding
B3 | no binding
B4 | no binding
B5 | no binding

target: T5, Kr (human, UniProt Q01973); experiment: as above
T5 construct: Kringle domain of the extracellular domain; also called hFc-hROR1-Kr
Procedure: as §2

T5 sequence (Q01973 312-391 limits assumed): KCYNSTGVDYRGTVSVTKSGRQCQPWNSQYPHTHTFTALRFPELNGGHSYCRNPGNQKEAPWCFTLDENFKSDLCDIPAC

Binder | binding result
B1 | no binding
B2 | no binding
B3 | no binding
B4 | no binding
B5 | no binding

target: T6, Fr + Ki (human, UniProt Q01973); experiment: as above
T6 construct: Frizzled and Kringle domains of the extracellular domain; also called hFc-hROR1-Fr-Ki
Procedure: as §2

T6 sequence (Q01973 165-391 limits assumed): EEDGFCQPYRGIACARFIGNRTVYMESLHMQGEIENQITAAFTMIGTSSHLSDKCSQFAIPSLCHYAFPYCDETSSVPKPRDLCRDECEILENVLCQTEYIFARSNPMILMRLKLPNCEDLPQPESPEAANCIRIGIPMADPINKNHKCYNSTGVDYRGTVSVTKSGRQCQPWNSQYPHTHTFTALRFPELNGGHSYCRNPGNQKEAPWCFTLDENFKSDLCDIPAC

Binder | binding result
B1 | no binding
B2 | no binding
B3 | no binding
B4 | no binding
B5 | no binding

target: T7, hFc-hROR1 (extracellular domain of human ROR1 fused to the Fc domain of human IgG1) (human, UniProt Q01973 30-406); experiment: SPR (Biacore X100); hFc-hROR1 captured by anti-human Fcγ antibody on CM5; Fab as analyte; 1:1 Langmuir fit
T7 construct: extracellular domain; also called hFc-ROR1; not shown: Fc domain of human IgG1
Procedure: (A) Shown are Biacore X100 sensorgrams obtained for the binding of each Fab to hFc-hROR1 captured by anti-human Fcγ antibody immobilized on CM5 chip after instantaneous background depletion. Fabs were injected at five different concentrations with the highest concentration indicated in table (B), one of the five concentrations was tested in duplicates. The equilibrium dissociation constant (Kd) was calculated from koff/kₒₙ (kₒₙ, association rate constant; koff, dissociation rate constant).
Surface plasmon resonance: Surface plasmon resonance for the measurement of the affinities of all Fabs to hFc-hROR1 and for epitope mapping studies were performed on a Biacore X100 instrument using Biacore reagents and software (GE Healthcare, Piscataway, N.J.). Anti-Human IgG (Fc) antibody was immobilized on a CM5 sensor chip following the instruction of Human Antibody Capture Kit (GE Healthcare, Piscataway, N.J.). The sensor chip included an empty flow cell for instantaneous background depletion. All binding assays used 1×HBS-EP+ running buffer (10 mM HEPES, 150 mM NaCl, 3 mM EDTA (pH 7.4), and 0.05% (v/v) Surfactant P20) and a flow rate of […]. […] The sensor chip was regenerated with […] from the Human Antibody Capture Kit without any loss of binding capacity. Calculation of association (kₒₙ) and dissociation (koff) rate constants was based on a 1:1 Langmuir binding model. The equilibrium dissociation constant (Kd) was calculated from koff/kₒₙ. For epitope mapping studies, each Fab was prepared at 500 nM alone in 1×HBS-EP+ running buffer and then injected in order as indicated in FIG. 5.

T7 sequence (Q01973 30-406): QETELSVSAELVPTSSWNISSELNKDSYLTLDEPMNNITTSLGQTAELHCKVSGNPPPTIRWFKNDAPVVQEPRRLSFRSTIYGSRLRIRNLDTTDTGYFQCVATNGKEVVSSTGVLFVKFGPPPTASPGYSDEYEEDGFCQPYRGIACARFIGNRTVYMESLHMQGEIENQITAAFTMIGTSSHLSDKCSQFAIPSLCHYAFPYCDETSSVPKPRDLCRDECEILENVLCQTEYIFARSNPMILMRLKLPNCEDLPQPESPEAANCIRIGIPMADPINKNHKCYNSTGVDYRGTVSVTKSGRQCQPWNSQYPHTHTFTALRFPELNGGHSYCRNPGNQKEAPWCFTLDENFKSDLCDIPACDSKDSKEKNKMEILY

Binder | Kd [nM] | koff [s⁻¹] | kon [M⁻¹ s⁻¹]
B1 | 240 | 0.0592 | 247000
B2 | 118 | 0.1 | 849000
B3 | 121 | 0.133 | 1.1e+06
B4 | 41.6 | 0.00128 | 30800
B5 | 281 | 0.0162 | 57500

target: T8, hFc-hROR2 (extracellular domain of human ROR2 fused to the Fc domain of human IgG1) (human, UniProt Q01974 34-403); experiment: ELISA as for hFc-hROR1; third bar series, keyed 'hFc-hROR1' a second time on the sheet, taken as hFc-hROR2 by legend paragraph 27
T8 construct: extracellular domain; not shown: Fc domain of human IgG1
Procedure: as §1, §2

T8 sequence (Q01974 34-403): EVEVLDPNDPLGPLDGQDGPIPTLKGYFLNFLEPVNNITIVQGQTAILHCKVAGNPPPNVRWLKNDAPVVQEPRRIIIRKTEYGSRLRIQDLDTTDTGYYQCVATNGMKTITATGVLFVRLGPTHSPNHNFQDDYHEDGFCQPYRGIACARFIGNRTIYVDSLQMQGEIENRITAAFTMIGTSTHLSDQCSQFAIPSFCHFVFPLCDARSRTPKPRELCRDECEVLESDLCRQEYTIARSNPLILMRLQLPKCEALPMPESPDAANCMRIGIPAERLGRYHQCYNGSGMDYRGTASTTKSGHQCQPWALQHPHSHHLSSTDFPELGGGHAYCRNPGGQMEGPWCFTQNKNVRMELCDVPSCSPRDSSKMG

Binder | binding result
B1 | no binding (tested: 100 ng/50 µL)
B2 | no binding (tested: 100 ng/50 µL)
B3 | no binding (tested: 100 ng/50 µL)
B4 | no binding (tested: 100 ng/50 µL)
B5 | no binding (tested: 100 ng/50 µL)
